Measured values as given in patent publication US20250206836A1 (ONA THERAPEUTICS S L, published 2025).
Substitutions are numbered along the chain they refer to. Names may count otherwise.

B1: 11G04 (antibody, human IgG1, V domains shown)
VH: EVQLQQSGAELVRPGASVTLSCKASGYRFSDYEMQWVKQTPVHGLEWIGGIDPETGGIAYNQKFKVKATLTADKSSSTAFMELRSLTSEDSAVYYCTRKLDFDYWGQGTTLTVSS
VL: ETTVTQSPASLSVATGEKVTIRCITSTDIDDDMNWYQQKPGEPPKLLISEGNTLRPGVPSRFSSSGYGTDFVFTIENMLSEDVADYYCLQSDNLPLTFGAGTKLELK
notes: Chimeric: mouse variable regions on human IgG1 LALA (L234A/L235A); also called 011G04
B2: 19G04 (antibody, human IgG1, V domains shown)
VH: EVQLQQSGPELVKPGASVKISCETSGHTFTEYTMHWVKQSHGKSLEWIGGIYPNNGATKYNQKFKGKATLTVDKSSSTAYMELRSLTSEDSAVYYCARDRYDVWFAYWGQGTLVTVSA
VL: B1 VL with V13M, T15I, V72I
notes: Chimeric: mouse variable regions on human IgG1 LALA (L234A/L235A); also called 019G04
B3: 30G04 (antibody, human IgG1, V domains shown)
VH: EVQLVESGGGVVQPGESLKLSCESNEYEFPSHDMSWVRKTPERRLELVAAINSDGAITYYPDTMERRFIISRDNTKKTLYLQMSSLKSEDTAMYYCARHGQTGTWFAYWGQGTLVTVSA
VL: B1 VL with V13M, T15I
notes: Chimeric: mouse variable regions on human IgG1 LALA (L234A/L235A); also called 030G04
B4: 37G04 (antibody, human IgG1, V domains shown)
VH: AVTLDESGGGLQTPGGALSLVCKASGFTFSDYDMLWVRQAPGKGLEFVAGINAASTYTDYGAAVKGRATISRDNGQSTVRLQVNNLRAEDTGTYYCAKSSYGGGWSDVGSIDAWGHGTEVIVSS
VL: ALTQPSSVSANPGETVKITCSGDRSYYGYGWYQQKAPGSAPVTVIYWDDKRPSDIPSRFSGSTSGSTATLTITGVQAEDEAVYFCGNMDSSYVGMFGAGTTLTVL
notes: Chimeric: chicken variable regions on human IgG1 LALA (L234A/L235A); also called 037G04
B5: 36G04 (antibody, human IgG1, V domains shown)
VH: AVTLDESGGGLQTPGGALSLVCKASGFIFSSYGMGWVRQAPGKGLEYIAAISNDGSKADYGAAVKGRATISRDNGQSTVRLQLNNLRAEDTATYYCAKSADTGYCSWSACIADSIDAWGHGTEVIVSS
VL: ALTQPSSVSAIPGETVKITCSGGGSDYGWYQQKSPGSAPVTVIYWSDNRPSNIPSRFSGSESGSTATLTITGVRAEDEAVYFCGGYDSSGSGMFGAGTTLTVL
notes: Chimeric: chicken variable regions on human IgG1 LALA (L234A/L235A); also called 036G04
B6: 35G04 (antibody, human IgG1, V domains shown)
VH: AVTLDESGGGLQTPGGALSLVCKASGFTFSNYGMGWMRQAPGKGLEFVAKIYKDGGYTGYGAAVDGRATISRDDGQSTVRLQLNDLRAEDTATYFCAKAADSGYLYITDSIDAWGHGTEVIVSS
VL: ALTQPSSVSANPGETVKITCSGGSGSYGWFQQKSPGNAPVTVIYHNDQRPSDIPSRFSGSKSGSTATLTITEVQADDEAVYVCGGYDNDNDAGIFGAGTTLTVL
notes: Chimeric: chicken variable regions on human IgG1 LALA (L234A/L235A); also called 035G04
B7: 33G04 (antibody, human IgG1, V domains shown)
VH: AVTLDESGGGLQTPGGALSLVCKASGFDFSSYAMGWVRQAPGKGLEWVAGKAKDGGGTAYGSAVKGRATISRDNGQSTVRLQLSNLRAEDTGVYYCAKSAYGDWFYGSSGPYADSIDAWGHGTEVIVSS
VL: ALTQPSSVSASPGETVKITCSGSSDSWYGWYQQKSPGSALVTVIYDSTNRPSSIPSRFSGSTSGSTGTLTITGVRADDEAVYFCGSFDSSTDSTAFGAGTTLTVL
notes: Chimeric: chicken variable regions on human IgG1 LALA (L234A/L235A); also called 033G04
B8: 34G04 (antibody, human IgG1, V domains shown)
VH: B7 VH
VL: ALTQPSSVSANPGETVKITCSGGDNYAGSYYYGWYQQKSPGSAPVTVIYDDTNRPADIPSRFSGSTSGSTNTLTITGVRAEDEAVYFCGGWDSINDRNIFGAGTTLTVL
notes: Chimeric: chicken variable regions on human IgG1 LALA (L234A/L235A); also called 034G04
B9: 38G04 (antibody, human IgG1, V domains shown)
VH: AVTLDESGGGLQTPGRALSLVCKASGFTFSSYNMFWVRQAPGKGLEWVAGIDDDGSFTLYGAAVKGRATISRDNGQSTVRLQLNNLRAEDTGTYYCARDSGAVSIDAWGHGTEVIVSS
VL: ALTQPSSVSANPGETVKITCSGGDSDYGWYQQKSPGSAPVTVIYQNDKRPSDIPSRFSGSASGSTATFTITGVQAEDEAVYYCGGWDGSYDGAVFGAGTTLTVL
notes: Chimeric: chicken variable regions on human IgG1 LALA (L234A/L235A); also called 038G04
B10: 11G06 (antibody, human IgG1, V domains shown)
VH: B1 VH
VL: B1 VL
B11: 73G06 (antibody, human IgG1, kappa)
heavy: EVQLVQSGAEVKKPGSSVKVSCKASGYRFSDYEMQWVRQAPGQGLEWMGGIDPETGGIAYAQKFQGRVTLTADKSTSTAYMELSSLRSEDTAVYYCTRKLDFDYWGQGTLVTVSSASTKGPSVFPLAPSSKSTSGGTAALGCLVKDYFPEPVTVSWNSGALTSGVHTFPAVLQSSGLYSLSSVVTVPSSSLGTQTYICNVNHKPSNTKVDKKVEPKSCDKTHTCPPCPAPESTRGPSVFLFPPKPKDTLYITREPEVTCVVVDVSHEDPEVKFNWYVDGVEVHNAKTKPREEQYNSTYRVVSVLTVLHQDWLNGKEYKCKVSNKALPAPIEKTISKAKGQPREPQVYTLPPSRDELTKNQVSLTCLVKGFYPSDIAVEWESNGQPENNYKTTPPVLDSDGSFFLYSKLTVDKSRWQQGNVFSCSVMHEALHNHYTQKSLSLSPGK
light: ETTVTQSPAFMSATTGDKVTISCITSTDIDDDMNWYQQKPGEPPKLLISEGNTLRPGVPSRFSSSGYGTDFTFTINNIESEDAAYYYCLQSDNLPLTFGQGTKLEIKRTVAAPSVFIFPPSDEQLKSGTASVVCLLNNFYPREAKVQWKVDNALQSGNSQESVTEQDSKDSTYSLSSTLTLSKADYEKHKVYACEVTHQGLSSPVTKSFNRGEC
notes: Humanized 11G04, human IgG1 STR
B12: 77G06 (antibody, human IgG1, kappa)
heavy: B11 heavy
light: B11 light with N52S
notes: as for B11
B13: 80G06 (antibody, human IgG1, kappa)
heavy: B11 heavy with E1Q
light: B11 light with T15P, N52S
notes: as for B11
B14: 74G06 (antibody, human IgG1, kappa)
heavy: B11 heavy with E1Q
light: B11 light
notes: as for B11
B15: 76G06 (antibody, human IgG1, kappa)
heavy: B11 heavy with E1Q
light: B11 light with T15P
notes: as for B11
B16: 75G06 (antibody, human IgG1, kappa)
heavy: B11 heavy
light: B11 light with T15P
notes: as for B11
B17: 78G06 (antibody, human IgG1, kappa)
heavy: B11 heavy with E1Q
light: B11 light with N52S
notes: as for B11
B18: 79G06 (antibody, human IgG1, kappa)
heavy: B11 heavy
light: B11 light with T15P, N52S
notes: as for B11

Target: T1, human CD36 (His-tagged) (human, UniProt P16671 30-439)
T1 construct: not shown: His tag
Experiment: SPR (Biacore T200), His-captured CD36, bivalent analyte model
Throughout, for Percent Fatty Acid Uptake Inhibition: test concentration or dose not given here.

T1 sequence (P16671 30-439 limits assumed): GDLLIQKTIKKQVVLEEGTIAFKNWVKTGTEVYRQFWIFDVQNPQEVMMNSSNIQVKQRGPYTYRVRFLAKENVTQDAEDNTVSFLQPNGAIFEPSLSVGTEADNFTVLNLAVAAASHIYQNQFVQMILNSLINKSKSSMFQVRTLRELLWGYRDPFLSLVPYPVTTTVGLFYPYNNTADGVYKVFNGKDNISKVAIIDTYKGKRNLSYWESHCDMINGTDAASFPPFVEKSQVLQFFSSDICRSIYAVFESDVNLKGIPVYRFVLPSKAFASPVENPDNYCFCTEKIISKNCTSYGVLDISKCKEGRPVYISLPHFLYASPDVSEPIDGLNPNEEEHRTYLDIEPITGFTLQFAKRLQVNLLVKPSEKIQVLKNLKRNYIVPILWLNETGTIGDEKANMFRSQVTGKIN

Row | Kd [nM] | koff [s⁻¹] | kon [M⁻¹ s⁻¹] | Binder
1 | 19 | 0.022 | 1.2e+06 | B1

Target: T2, human CD36 (on HEK 293 or SCC25 cells) (human, UniProt P16671 2-472)
Experiment: cell-based or functional assay

T2 sequence (P16671 2-472 limits assumed): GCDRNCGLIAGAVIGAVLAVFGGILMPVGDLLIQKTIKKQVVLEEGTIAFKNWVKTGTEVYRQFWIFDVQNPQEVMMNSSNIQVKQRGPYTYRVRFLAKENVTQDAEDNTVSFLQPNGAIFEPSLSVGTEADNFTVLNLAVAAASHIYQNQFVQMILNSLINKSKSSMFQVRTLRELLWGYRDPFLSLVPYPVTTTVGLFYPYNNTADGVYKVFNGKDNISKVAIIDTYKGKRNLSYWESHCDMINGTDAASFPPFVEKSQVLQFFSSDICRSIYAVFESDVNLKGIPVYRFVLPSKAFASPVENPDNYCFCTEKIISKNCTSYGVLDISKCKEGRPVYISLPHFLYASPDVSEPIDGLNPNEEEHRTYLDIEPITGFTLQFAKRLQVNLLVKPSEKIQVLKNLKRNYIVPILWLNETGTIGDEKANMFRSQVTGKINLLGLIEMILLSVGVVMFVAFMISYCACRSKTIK

Row | Percent Fatty Acid Uptake Inhibition [%] | Binder
2 | 53.3 | B2
3 | 43.5 | B3
4 | 41.6 | B1

Target: T2, human CD36 (on HEK 293 or SCC25 cells)
Experiment: FACS, HEK 293 cells transiently overexpressing CD36;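 note: antibody binding to transfected cells detected by flow cytometry with a fluorescent anti-human secondary antibody, EC50 from a four-parameter sigmoidal fit of mean fluorescence intensity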

Row | EC50 [nM] | Binder
5 | 1.92 | B2
6 | 0.32 | B3
7 | 0.45 | B1
8 | 0.62 | B4
9 | 0.33 | B5
10 | 0.63 | B6
11 | 0.31 | B7
12 | 0.56 | B8
13 | 0.35 | B9

Target: T3, mouse CD36 (on HEK 293 cells) (mouse, UniProt Q08857 1-472)
T3 construct: also called Murine CD36
Experiment: as above

T3 sequence (Q08857 whole entry): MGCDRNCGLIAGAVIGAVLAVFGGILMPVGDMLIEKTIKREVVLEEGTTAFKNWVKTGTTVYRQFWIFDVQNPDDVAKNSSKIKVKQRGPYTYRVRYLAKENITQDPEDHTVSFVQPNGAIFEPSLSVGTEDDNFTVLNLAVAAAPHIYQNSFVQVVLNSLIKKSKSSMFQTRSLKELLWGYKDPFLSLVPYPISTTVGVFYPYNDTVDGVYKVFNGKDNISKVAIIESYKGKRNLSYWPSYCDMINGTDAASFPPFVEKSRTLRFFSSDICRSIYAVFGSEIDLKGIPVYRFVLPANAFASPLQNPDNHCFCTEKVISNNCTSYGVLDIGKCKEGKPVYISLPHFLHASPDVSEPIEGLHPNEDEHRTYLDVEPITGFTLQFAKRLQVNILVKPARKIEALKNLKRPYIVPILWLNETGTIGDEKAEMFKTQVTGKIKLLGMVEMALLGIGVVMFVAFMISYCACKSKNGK

Row | EC50 [nM] | Binder
14 | 22.5 | B2
15 | 0.96 | B3
16 | 11.2 | B1
17 | 2.29 | B4
18 | 0.66 | B5
19 | 2.25 | B6
20 | 4.33 | B7
21 | 6.75 | B8
22 | 0.69 | B9

Target: T4, nonhuman primate CD36 (on HEK 293 cells) (cynomolgus monkey / rhesus macaque, UniProt P16671 2-472 (human entry))
T4 construct: also called non-human primate CD36 (cynomolgus)
Experiment: as above

T4 sequence (P16671 other isoform, or with tags, fused parts or gaps limits assumed): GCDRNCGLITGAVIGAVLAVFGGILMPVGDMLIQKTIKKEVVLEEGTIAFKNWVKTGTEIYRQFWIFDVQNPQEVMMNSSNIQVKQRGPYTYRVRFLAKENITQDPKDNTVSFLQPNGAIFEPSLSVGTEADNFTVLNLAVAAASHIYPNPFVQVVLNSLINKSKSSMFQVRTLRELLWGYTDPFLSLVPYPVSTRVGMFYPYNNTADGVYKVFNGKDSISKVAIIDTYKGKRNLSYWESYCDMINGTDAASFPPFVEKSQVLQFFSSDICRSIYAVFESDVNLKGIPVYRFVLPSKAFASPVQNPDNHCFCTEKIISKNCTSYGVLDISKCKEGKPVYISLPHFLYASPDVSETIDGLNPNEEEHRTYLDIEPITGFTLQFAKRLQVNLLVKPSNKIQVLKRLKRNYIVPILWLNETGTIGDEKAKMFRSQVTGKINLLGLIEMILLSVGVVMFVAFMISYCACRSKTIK

Row | EC50 [nM] | Binder
23 | 5.45 | B2
24 | 1.63 | B3
25 | 8.93 | B1
26 | 1.45 | B4
27 | 0.29 | B5
28 | 0.59 | B6
29 | 0.52 | B7
30 | 1.4 | B8
31 | 0.33 | B9

Target: T5, purified biotin-tagged human CD36 (human, UniProt P16671 30-439, limits assumed, biotin tag, site not stated)
Experiment: AlphaScreen competition; competitor 1G04 on acceptor beads;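 note: streptavidin donor beads excited at 680 nm release singlet oxygen, and the light signal needs a nearby acceptor bead, with 30 min donor-bead incubation at 25 °C in the dark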

T5 sequence (P16671 30-439 limits assumed): as the sequence (P16671 30-439 limits assumed) above

Row | EC50 [nM] | Binder
32 | 9.91 | B4
33 | 0.57 | B5
34 | 0.66 | B6
35 | 1.58 | B7
36 | 2.47 | B8
37 | 1.45 | B9

Target: T5, purified biotin-tagged human CD36
Experiment: AlphaScreen competition; competitor 11G04 on acceptor beads
Experimental: This was done using the AlphaScreen® bead-based microplate assay. […] AlphaLISA® Streptavidin Donor Beads were then added and the mix incubated for 30 min at 25° C. in the dark. The donor bead contains a photosensitizer, which upon excitation by light at 680 nm, converts oxygen (O₂) into an excited form, singlet oxygen. Singlet oxygen molecules have a reduced lifetime (4 microseconds half-life) and can diffuse approximately 200 nm in solution before falling back to ground state. In the absence of acceptor beads, the singlet oxygen molecules fall back to ground state without producing any light signal.

Row | EC50 [nM] | Binder
38 | 5.23 | B2
39 | 0.65 | B3
40 | 3.3 | B4
41 | 1.04 | B5
42 | 1.35 | B6
43 | 3.68 | B7
44 | 4.82 | B8
45 | 1.05 | B9

Target: T2, human CD36 (on HEK 293 or SCC25 cells)
Experiment: FACS, HEK 293 cells transiently overexpressing human CD36
Experimental: After incubation with the cells, an anti-human fluorescently labelled antibody was added to the cell media, allowed to incubate further, and the unbound antibody was washed off of the cells. Subsequently, the cells were subjected to FACS analysis to determine antibody binding to the cells. The results were fitted to a sigmoidal titration curve. Using a nonlinear regression model, the EC₅₀ values for each antibody were calculated from the GeoMFI and MFI values using the log(agonist) versus response (four parameters) fitting on the data transformed according to X=Log[X] in GraphPad PRISM.
After transiently transfecting the HEK 293 cells with a CD36 expression construct, cells were treated with three-fold serial dilution of each candidate antibody (10 dilutions starting at 500 nM). […] Antibody binding to cells was measured by FACS as above.

Row | EC50 [nM] | Binder
46 | 0.76 | B10
47 | 0.49 | B1
48 | 0.87 | B11
49 | 0.81 | B12
50 | 0.65 | B13
51 | 1.1 | B14
52 | 0.88 | B15
53 | 0.98 | B16
54 | 1.15 | B17
55 | 0.65 | B18

Target: T2, human CD36 (on HEK 293 or SCC25 cells)
Experiment: cell-based or functional assay
Remark: another data set of the same source

Row | IC50 of oxLDL uptake inhibition (DiI-oxLDL, SCC25 cells) [nM] | Binder
56 | 1.17 | B1
57 | 1.14 | B4
58 | 0.09 | B5
59 | 0.11 | B6
60 | 0.28 | B7
61 | 1.06 | B8
62 | 0.35 | B9

Target: T2, human CD36 (on HEK 293 or SCC25 cells)
Experiment: cell-based or functional assay
Remark: another data set of the same source

Row | IC50 of fatty acid uptake inhibition (BODIPY FL C16, HEK hCD36 cells) [nM] | Binder
63 | 0.05 | B2
64 | 0.8 | B3
65 | 0.07 | B1
66 | 0.3 | B4
67 | 0.81 | B5
68 | 0.04 | B6
69 | 0.1 | B7
70 | 0.2 | B8
71 | 0.18 | B9

Target: T2, human CD36 (on HEK 293 or SCC25 cells)
Experiment: FACS, SCC25 cells stably overexpressing human CD36
Experimental: After transiently transfecting the HEK 293 cells with a CD36 expression construct, cells were treated with three-fold serial dilution of each candidate antibody (10 dilutions starting at 500 nM). […] After incubation with the cells, an anti-human fluorescently labelled antibody was added to the cell media, allowed to incubate further, and the unbound antibody was washed off of the cells. Subsequently, the cells were subjected to FACS analysis to determine antibody binding to the cells. The results were fitted to a sigmoidal titration curve. Using a nonlinear regression model, the EC₅₀ values for each antibody were calculated from the GeoMFI and MFI values using the log(agonist) versus response (four parameters) fitting on the data transformed according to X=Log[X] in GraphPad PRISM.

Row | EC50 [nM] | Binder
72 | 0.75 | B2
73 | 0.22 | B3
74 | 0.46 | B1
